In patent US20240092918A1 (Novartis, published 2024):

Tests used:
[1] = molecular target: T1, Rat CCR7 (rat, UniProt P47774 25-378 (mouse entry)); experiment: FACS, NIH3T3 cell series and CD4+ T cells
T1 construct: On NIH3T3 cells or CD4+ T cells of Wistar rats; also called NIH3T3.rat CCR7
T1 chain: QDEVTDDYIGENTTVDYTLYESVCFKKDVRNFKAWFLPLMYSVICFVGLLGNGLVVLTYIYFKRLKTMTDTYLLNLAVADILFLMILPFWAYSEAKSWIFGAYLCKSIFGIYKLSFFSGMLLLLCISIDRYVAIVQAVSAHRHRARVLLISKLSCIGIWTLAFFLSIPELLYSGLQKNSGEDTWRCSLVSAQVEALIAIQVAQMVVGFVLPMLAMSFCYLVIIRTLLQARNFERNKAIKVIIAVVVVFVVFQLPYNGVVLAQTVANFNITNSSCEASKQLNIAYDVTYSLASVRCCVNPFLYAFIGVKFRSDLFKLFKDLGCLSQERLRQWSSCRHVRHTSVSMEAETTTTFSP
Method: (§1) For this purpose, CCR7 positive cells were harvested (adherent cells were detached with Accutase), washed twice with FACS buffer (PBS/3% FCS/0.02% sodium azide) and diluted to approximately 2×10⁶ cells/ml in FACS buffer. All subsequent steps were done on ice to prevent internalization of the receptor. 100 μl cell suspension/well were transferred into 96-well U-bottom plates (Falcon). 2×10⁵ cells/well were incubated with a serial dilution of antibody concentrations of the anti-CCR7 antibody-of-interest ranging across several logs, starting at a high of 100 nM for 60 minutes at 4° C., gently shaking. Following incubation, cells were spun down (1200 rpm, 2 min, 4° C.) and washed three times with FACS buffer. A fluorophore-conjugated anti-hFc gamma-APC (Jackson ImmunoResearch) detection antibody was added at 1:400 and samples were incubated for 1 h on ice in the dark, gently shaken. After a final wash, cells were resuspended in 100 μl of FACS buffer containing 0.2 μg/ml DAPI followed by readout on the flow cytometry machine (BD LSRFortessa Cell Analyzer; Cat #647177). Mean fluorescence intensity (MFI) of live, single cells was calculated in Flowjo 10.0.8 and exported into Graphpad Prism6 for EC50 determination.

[2] = molecular target: T2, Mouse CCR7 (mouse, UniProt P47774 25-378); experiment: FACS, NIH3T3 cell series and CD4+ T cells
T2 construct: On NIH3T3 cells or CD4+ T cells of CD-1 mice; also called NIH3T3.mouse CCR7
T2 sequence: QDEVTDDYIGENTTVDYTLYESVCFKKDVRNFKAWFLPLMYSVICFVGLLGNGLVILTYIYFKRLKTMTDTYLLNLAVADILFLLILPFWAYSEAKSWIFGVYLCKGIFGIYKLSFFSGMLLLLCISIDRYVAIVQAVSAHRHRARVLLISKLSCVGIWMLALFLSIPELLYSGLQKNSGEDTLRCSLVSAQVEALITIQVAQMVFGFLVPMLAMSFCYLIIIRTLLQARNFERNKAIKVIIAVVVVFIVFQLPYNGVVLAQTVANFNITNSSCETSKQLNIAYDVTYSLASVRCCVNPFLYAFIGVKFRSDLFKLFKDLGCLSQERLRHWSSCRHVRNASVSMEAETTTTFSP
Method: as §1

[3] = molecular target: T3, Human CCR7 (human, UniProt P32248 25-378); experiment: FACS competition on DEL cells (CCR7+), antibody titrated up to 100 nM applied together with the competitor CCL19 kept at 1 uM (panel 'ligand 1uM'), detection anti-hFc.PE, MFI [panel ligand 1uM]
T3 construct: also called hCCR7; NIH3T3.hCCR7
T3 sequence: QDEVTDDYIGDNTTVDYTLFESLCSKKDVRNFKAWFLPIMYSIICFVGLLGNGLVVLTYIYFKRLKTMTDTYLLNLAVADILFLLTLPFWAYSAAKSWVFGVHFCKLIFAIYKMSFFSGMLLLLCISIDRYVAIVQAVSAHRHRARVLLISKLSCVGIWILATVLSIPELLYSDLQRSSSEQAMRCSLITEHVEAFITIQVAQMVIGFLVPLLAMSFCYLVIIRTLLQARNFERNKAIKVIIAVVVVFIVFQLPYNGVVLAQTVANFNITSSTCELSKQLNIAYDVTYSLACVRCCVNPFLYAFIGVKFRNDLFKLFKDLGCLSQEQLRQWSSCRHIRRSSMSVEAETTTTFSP

[4] = molecular target: T3, Human CCR7; experiment: cell-based or functional assay
[5] = molecular target: T4, recombinant CCR7 (Origene #TP306614) (human, UniProt P32248 25-378, limits assumed); experiment: ELISA, plate coated with 3.5 ug/ml recombinant CCR7 (Origene #TP306614), antibody in serial dilution, detection anti-hFc gamma-HRP, absorbance at 650 nm
T4 construct: Bought protein coated on ELISA plates; also called recombinant hCCR7
T4 sequence (looked up): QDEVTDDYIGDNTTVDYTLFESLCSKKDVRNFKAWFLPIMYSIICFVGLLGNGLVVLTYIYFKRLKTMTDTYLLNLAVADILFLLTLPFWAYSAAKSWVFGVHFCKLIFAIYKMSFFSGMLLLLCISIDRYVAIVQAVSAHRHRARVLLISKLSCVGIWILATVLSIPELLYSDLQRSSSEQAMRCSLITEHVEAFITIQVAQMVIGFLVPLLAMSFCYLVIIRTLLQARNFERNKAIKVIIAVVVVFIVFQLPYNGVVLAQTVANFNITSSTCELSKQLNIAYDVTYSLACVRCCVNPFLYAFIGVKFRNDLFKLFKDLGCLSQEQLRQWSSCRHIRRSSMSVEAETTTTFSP
Method: Binding and affinity was also assessed in an ELISA-based assay using recombinant CCR7 (Origene #TP306614). Maxisorp™ 384-well plates (Thermo Nunc) were coated with 3.5 μg/ml of recombinant CCR7 diluted in PBS. After blocking with 3% BSA (bovine serum albumin) in PBS for 1 hr at room temperature, washing plates 3× with PBS-T (0.01% Tween 20 in PBS), primary antibodies were added in a serial dilution and incubated for 1 hr at room temperature.

binding result [1] | binding result [2] | EC50 (read off the curve) [3] [nM] | pHrodo (6 h MFI), uptake of pHrodo-labelled antibody at 5 ug/ml, CD4+ T cells (2000 receptors) [4] [MFI] | pHrodo (6 h MFI), uptake of pHrodo-labelled antibody at 5 ug/ml, CMLT1 cells (19583 receptors) [4] [MFI] | pHrodo (6 h MFI), uptake of pHrodo-labelled antibody at 5 ug/ml, DEL cells (110685 receptors) [4] [MFI] | pHrodo (6 h MFI), uptake of pHrodo-labelled antibody at 5 ug/ml, JVM3 cells (8717 receptors) [4] [MFI] | pHrodo (6 h MFI), uptake of pHrodo-labelled antibody at 5 ug/ml, Jeko-1 cells (28852 receptors) [4] [MFI] | pHrodo (6 h MFI), uptake of pHrodo-labelled antibody at 5 ug/ml, KE97 cells (152093 receptors) [4] [MFI] | pHrodo (6 h MFI), uptake of pHrodo-labelled antibody at 5 ug/ml, L540 cells (167549 receptors) [4] [MFI] | pHrodo (6 h MFI), uptake of pHrodo-labelled antibody at 5 ug/ml, L1236 cells (61602 receptors) [4] [MFI] | pHrodo (6 h MFI), uptake of pHrodo-labelled antibody at 5 ug/ml, MJ cells (111121 receptors) [4] [MFI] | pHrodo (6 h MFI), uptake of pHrodo-labelled antibody at 5 ug/ml, MOTN1 cells (84200 receptors) [4] [MFI] | pHrodo (6 h MFI), uptake of pHrodo-labelled antibody at 5 ug/ml, Mec2 cells (50840 receptors) [4] [MFI] | EC50 (read off the curve) [5] [nM] | Binder
no binding | no binding | – | – | – | – | – | – | – | – | – | – | – | – | – | 121G12 humanized CysMab (Fc Wild Type) (antibody, human IgG1, V domains shown, Human IgG1 kappa with E152C/S375C (CysMab) and wild type Fc) VH: EVQLVESGGGLVKPGGSLRLSCAASGFTFSTYAMSWVRQAPGKGLEWVATISDAGSYSYYPDNVKGRFTISRDNAKNSLYLQMNSLRAEDTAVYYCARRGSRYEEYYVMDYWGQGTTVTVSS VL: EIVLTQSPATLSVSPGERVTLSCRASQSISNNLHWYQQKPGQAPRLLIKYASQSISGIPARFSGSGSGTDFTLTISSVEPEDFGVYFCQQSSSWLTFGQGTKLEIK
– | – | 2 to 3 | 402 | 561 | 3780 | 146 | 1390 | 4420 | 11800 | 5820 | 3260 | 2540 | 3000 | – | 674J13 (Humanized, CysMab DAPA) (antibody, human IgG1, kappa, V domains shown, Human IgG1 kappa, E152C/S375C, D265A/P329A; In the pHrodo assay it carried maleimide-pHrodo (DAR 4); also called 674J13.CysMab.DAPA; 674J13.DAPA) VH: DVQLQESGPGLVKPSQTLSLTCTVSGYSITSGYSWHWIRQHPGKGLEWMAHIHSSGSTNYNPSLKSRITISRDTSKNQFSLKLSSVTAADTAVYYCARGGVQAFAYWGQGTLVTVSS VL: EIVLTQSPATLSASPGERVTMSCSASSSVIYMHWYQQKPGQAPRRWIYDTSKLASGVPARFSGSGSGTDYTLTISSMEPEDAAVYYCQQWSSNPLTFGQGTKLEIKR
– | – | – | 278 | 301 | 1910 | 148 | 450 | 1570 | 6840 | 1240 | 1650 | 1030 | 1340 | ~0.7 | 121G12 (Humanized CysMab, DAPA) (antibody, human IgG1, kappa, Human IgG1 kappa, E152C/S375C, D265A/P329A; In the pHrodo assay it carried maleimide-pHrodo (DAR 4); also called 121G12.CysMab.DAPA; 121G12.DAPA) heavy: EVQLVESGGGLVKPGGSLRLSCAASGFTFSTYAMSWVRQAPGKGLEWVATISDAGSYSYYPDNVKGRFTISRDNAKNSLYLQMNSLRAEDTAVYYCARRGSRYEEYYVMDYWGQGTTVTVSSASTKGPSVFPLAPSSKSTSGGTAALGCLVKDYFPCPVTVSWNSGALTSGVHTFPAVLQSSGLYSLSSVVTVPSSSLGTQTYICNVNHKPSNTKVDKRVEPKSCDKTHTCPPCPAPELLGGPSVFLFPPKPKDTLMISRTPEVTCVVVAVSHEDPEVKFNWYVDGVEVHNAKTKPREEQYNSTYRVVSVLTVLHQDWLNGKEYKCKVSNKALAAPIEKTISKAKGQPREPQVYTLPPSREEMTKNQVSLTCLVKGFYPCDIAVEWESNGQPENNYKTTPPVLDSDGSFFLYSKLTVDKSRWQQGNVFSCSVMHEALHNHYTQKSLSLSPGK light: EIVLTQSPATLSVSPGERVTLSCRASQSISNNLHWYQQKPGQAPRLLIKYASQSISGIPARFSGSGSGTDFTLTISSVEPEDFGVYFCQQSSSWLTFGQGTKLEIKRTVAAPSVFIFPPSDEQLKSGTASVVCLLNNFYPREAKVQWKVDNALQSGNSQESVTEQDSKDSTYSLSSTLTLSKADYEKHKVYACEVTHQGLSSPVTKSFNRGEC
